B1: CPEB3 Ribozyme (parent)
chain: UAACAGGGGGCCACAGCAGAAGCGUUCACGUCGCAGCCCCUGUCAGAUUCUGGUGAAUCUGCGAAUUCUGCUGUAUAUCUC

Variants of: B1
Assay: self-cleavage, relative activity (ratio to wild type); higher = more cleavage; in vitro, sequencing
How it was run: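 Relative activity compares each variant's cleaved/total read fraction with that of the unmutated ribozyme. To get these fractions, barcoded CPEB3 ribozyme libraries from rounds of error-prone PCR were transcribed with T7 RNA polymerase for 5 hours at 37°C and then given 15 min of DNase I treatment before EDTA was added. The RNAs were reverse transcribed with template switching and sequenced on Illumina, and DNA sequencing linked barcodes to variants. A minimum of 5 reads applied, and three batches were averaged.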

First: UAACAGGGGGCCACAGCAUAAGCGUUCACGUCGCAGCCCCUGUCAGAUUCUGGUGAAUCAGCGAAUUCUGCUGUAUAUCUC [G19U U60A]
Second: UAACAGGGGGCCACAGCAUAAGCGUUCACGUCGCAGCCCCUGUCAGAUUCUGGUGAAUCCGCGAAUUCUGCUGUAUAUCUC [G19U U60C]
The self-cleavage of the first is higher: 0.45 for the first, 0.28 for the second.

UAACAGGGGGCCACAGCAUAAGCGUUCACGUCGCAGCCCCAGUCAGAUUCUGGUGAAUCUGCGAAUUCUGCUGUAUAUCUC [G19U U41A] and UAACAGGGGGCCACAGCAUAAGCGUUCACGUCGCAGCCCCCGUCAGAUUCUGGUGAAUCUGCGAAUUCUGCUGUAUAUCUC [G19U U41C] are the same in self-cleavage: 0.22 for the first, 0.22 for the second.

First: UAACAGGGGGCCACAGCAGCAGCGUUCACGUCGCAGCCCCUGUCAGAUUCUGGUGAGUCUGCGAAUUCUGCUGUAUAUCUC [A20C A57G]
Second: UAACAGGGGGCCACAGCAGCAGCGUUCACGUCGCAGCCCCUGUCAGAUUCUGGUGAAUCUGUGAAUUCUGCUGUAUAUCUC [A20C C62U]
The self-cleavage of the first is lower: 0.09 for the first, 0.12 for the second.

First: UAACAGGGGGCCACAGCAUAAGCGUUCACGUCGCAGCCCCUGUCAGAUUCUGGUGAAUCUGCGAAUUCCGCUGUAUAUCUC [G19U U69C]
Second: UAACAGGGGGCCACAGCAUAAGCGUUCACGUCGCAGCCCCUGUCAGAUUCUGGUGAAUCUGCGAAUUCAGCUGUAUAUCUC [G19U U69A]
The self-cleavage of the first is lower: 0.09 for the first, 0.27 for the second.

Compared with UAACAGGGGGCCACAGCAGCAGCGUUCACGUCGCAGCCCCUGUCAGAUUCUGGUGAAUCUGCGAAUUCUGCUGUAUGUCUC [A20C A77G], UAACAGGGGGCCACAGCAGCAGCGUUCACGUCGCAGCCCCUGUCAGAUUCUGGUGAAUCUGCGAAUUCUGCUGUAUUUCUC [A20C A77U] is higher in self-cleavage: 0.11 for the first, 0.35 for the second.

UAACAGGGGGCCACAGCAUAAGCGUUCACGUCGCAGCCCCUGUCAGAUUCUGGUGAAUCUGCGAAUUCUGCGGUAUAUCUC [G19U U72G] and UAACAGGGGGCCACAGCAUAAGCGUUCACGUCGCAGCCCCUGUCAGAUUCUGGUGAAUCUGCGAAUUCUGCCGUAUAUCUC [G19U U72C] are the same in self-cleavage: 0.4 for the first, 0.4 for the second.

UAACAGGGGGCCACAGCAUAAGCGUUCACGUCGCAGCCCCUGUCAGAUUCUGGUGAAUCUGCGAAUUCUGCAGUAUAUCUC [G19U U72A] and UAACAGGGGGCCACAGCAUAAGCGUUCACGUCGCAGCCCCUGUCAGAUUCUGGUGAAUCUGCGAAUUCUGCUGUAUACCUC [G19U U78C] are the same in self-cleavage: 0.32 for the first, 0.32 for the second.

First: UAACAGGGGGCCACAGCAGCAGCGUUCACGUCGCAGCCCCUGUCAGAUUCUGGUGCAUCUGCGAAUUCUGCUGUAUAUCUC [A20C A56C]
Second: UAACAGGGGGCCACAGCAGCAGCGUUCACGUCGCAGCCCCUGUCAGAUUCUGGUGGAUCUGCGAAUUCUGCUGUAUAUCUC [A20C A56G]
The self-cleavage of the first is lower: 0.22 for the first, 0.27 for the second.

Compared with UAACAGGGGGCCACAGCAGCAGCGUUCACGUCGCAGCCCCUGUUAGAUUCUGGUGAAUCUGCGAAUUCUGCUGUAUAUCUC [A20C C44U], UAACAGGGGGCCACAGCAGCAGCGUUCACGUCGCAGCCCCUGUCAGAUUCUGGUGAAUCUGCGAAUUCUGCUGUAUAUCUC [A20C] is higher in self-cleavage: 0.22 for the first, 0.3 for the second.

UAACAGGGGGCCACAGCAUAAGCGUUCACGUCGCAGCCCCUGUCAGAAUCUGGUGAAUCUGCGAAUUCUGCUGUAUAUCUC [G19U U48A] and UAACAGGGGGCCACAGCAUAAGCGUUCACGUCGCAGCCCCUGUCAGACUCUGGUGAAUCUGCGAAUUCUGCUGUAUAUCUC [G19U U48C] are the same in self-cleavage: 0.2 for the first, 0.2 for the second.

Compared with UAACAGGGGGCCACAGCAGCAGCGUUCACGUCGCAGCCGCUGUCAGAUUCUGGUGAAUCUGCGAAUUCUGCUGUAUAUCUC [A20C C39G], UAACAGGGGGCCACAGCAUAAGCGAUCACGUCGCAGCCCCUGUCAGAUUCUGGUGAAUCUGCGAAUUCUGCUGUAUAUCUC [G19U U25A] is higher in self-cleavage: 0.07 for the first, 0.19 for the second.

Compared with UAACAGGGGGCCACAGCAUAAGCGGUCACGUCGCAGCCCCUGUCAGAUUCUGGUGAAUCUGCGAAUUCUGCUGUAUAUCUC [G19U U25G], UAACAGGGGGCCACAGCAUAAGCGCUCACGUCGCAGCCCCUGUCAGAUUCUGGUGAAUCUGCGAAUUCUGCUGUAUAUCUC [G19U U25C] is lower in self-cleavage: 0.2 for the first, 0.08 for the second.

First: UAACAGGGGGCCACAGCAGCAGAGUUCACGUCGCAGCCCCUGUCAGAUUCUGGUGAAUCUGCGAAUUCUGCUGUAUAUCUC [A20C C23A]
Second: UAACAGGGGGCCACAGCAGCAGCGUUCACGUCGCAGUCCCUGUCAGAUUCUGGUGAAUCUGCGAAUUCUGCUGUAUAUCUC [A20C C37U]
The self-cleavage of the first is lower: 0.09 for the first, 0.13 for the second.

Compared with UAACAGGGGGCCACAGCAGCUGCGUUCACGUCGCAGCCCCUGUCAGAUUCUGGUGAAUCUGCGAAUUCUGCUGUAUAUCUC [A20C A21U], UAACAGGGGGCCACAGCAGCGGCGUUCACGUCGCAGCCCCUGUCAGAUUCUGGUGAAUCUGCGAAUUCUGCUGUAUAUCUC [A20C A21G] is higher in self-cleavage: 0.2 for the first, 0.49 for the second.

Compared with UAACAGGGGGCCACAGCAUAAGCGUUCACGUCGCAGCCCCUGCCAGAUUCUGGUGAAUCUGCGAAUUCUGCUGUAUAUCUC [G19U U43C], UAACAGGGGGCCACAGCAUAAGCGUUCACGUCGCAGCCCCUGACAGAUUCUGGUGAAUCUGCGAAUUCUGCUGUAUAUCUC [G19U U43A] is higher in self-cleavage: 0.1 for the first, 0.29 for the second.

Compared with UAACAGGGGGCCACAGCAUAAGCGUUCACGUCGCAGCCCCUGUCAGAUUCUGGUGAAUCUGCGAAUUCUGCUGCAUAUCUC [G19U U74C], UAACAGGGGGCCACAGCAGCAGCGAUCACGUCGCAGCCCCUGUCAGAUUCUGGUGAAUCUGCGAAUUCUGCUGUAUAUCUC [A20C U25A] is lower in self-cleavage: 0.56 for the first, 0.31 for the second.

First: UAACAGGGGGCCACAGCAGCAGCGCUCACGUCGCAGCCCCUGUCAGAUUCUGGUGAAUCUGCGAAUUCUGCUGUAUAUCUC [A20C U25C]
Second: UAACAGGGGGCCACAGCAUAAGCGUUCACGCCGCAGCCCCUGUCAGAUUCUGGUGAAUCUGCGAAUUCUGCUGUAUAUCUC [G19U U31C]
The self-cleavage of the first is higher: 0.28 for the first, 0.2 for the second.

Source: the RNAGym collection of RNA variant scans (doi:10.1093/nar/gkz1192)
